Experimental data taken from US20100015650.

Tested on: BRB1 tyrosine kinase substrate peptide
Sequence (chain, as listed by the source): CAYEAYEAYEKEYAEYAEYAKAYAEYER

Sequence of YES (chain, as listed by the source): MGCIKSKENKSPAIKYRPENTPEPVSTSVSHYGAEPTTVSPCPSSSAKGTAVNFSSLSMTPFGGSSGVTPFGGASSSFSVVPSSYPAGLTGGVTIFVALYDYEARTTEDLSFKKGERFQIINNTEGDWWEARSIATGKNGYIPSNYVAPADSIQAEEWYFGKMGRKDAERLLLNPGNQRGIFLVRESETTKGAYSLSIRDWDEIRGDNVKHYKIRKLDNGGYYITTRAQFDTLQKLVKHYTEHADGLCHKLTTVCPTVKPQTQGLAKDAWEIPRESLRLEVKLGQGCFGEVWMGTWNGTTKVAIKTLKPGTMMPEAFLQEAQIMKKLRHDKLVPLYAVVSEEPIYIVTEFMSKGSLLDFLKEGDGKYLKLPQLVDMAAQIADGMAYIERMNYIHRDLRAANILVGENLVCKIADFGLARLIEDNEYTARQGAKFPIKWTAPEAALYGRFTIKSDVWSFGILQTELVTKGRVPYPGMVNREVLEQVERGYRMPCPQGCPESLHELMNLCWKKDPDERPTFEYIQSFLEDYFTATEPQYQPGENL
Sequence of TRKB (NTRK2) (chain, as listed by the source): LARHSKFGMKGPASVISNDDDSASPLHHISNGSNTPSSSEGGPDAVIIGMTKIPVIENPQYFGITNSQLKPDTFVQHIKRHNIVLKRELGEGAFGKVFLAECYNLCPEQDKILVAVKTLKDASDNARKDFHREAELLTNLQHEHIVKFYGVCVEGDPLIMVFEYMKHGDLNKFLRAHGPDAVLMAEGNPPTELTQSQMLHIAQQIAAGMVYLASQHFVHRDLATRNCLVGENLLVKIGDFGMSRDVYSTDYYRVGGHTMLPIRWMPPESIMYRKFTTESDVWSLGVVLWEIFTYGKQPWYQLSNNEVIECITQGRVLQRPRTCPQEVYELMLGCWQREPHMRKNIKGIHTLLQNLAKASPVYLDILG
Sequence of EphA7 (chain, as listed by the source): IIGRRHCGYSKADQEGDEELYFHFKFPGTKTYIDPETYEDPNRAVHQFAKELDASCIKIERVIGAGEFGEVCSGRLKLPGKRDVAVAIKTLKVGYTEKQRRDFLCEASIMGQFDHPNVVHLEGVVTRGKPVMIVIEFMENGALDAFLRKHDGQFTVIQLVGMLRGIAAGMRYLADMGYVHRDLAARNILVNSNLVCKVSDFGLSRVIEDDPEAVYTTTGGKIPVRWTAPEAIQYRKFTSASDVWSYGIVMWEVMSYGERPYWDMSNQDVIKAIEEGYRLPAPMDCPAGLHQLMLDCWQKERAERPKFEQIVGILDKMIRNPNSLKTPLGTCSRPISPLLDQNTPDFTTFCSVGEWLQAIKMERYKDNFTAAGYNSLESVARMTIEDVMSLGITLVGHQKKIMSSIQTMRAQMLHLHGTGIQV
Sequence of BLK (chain, as listed by the source): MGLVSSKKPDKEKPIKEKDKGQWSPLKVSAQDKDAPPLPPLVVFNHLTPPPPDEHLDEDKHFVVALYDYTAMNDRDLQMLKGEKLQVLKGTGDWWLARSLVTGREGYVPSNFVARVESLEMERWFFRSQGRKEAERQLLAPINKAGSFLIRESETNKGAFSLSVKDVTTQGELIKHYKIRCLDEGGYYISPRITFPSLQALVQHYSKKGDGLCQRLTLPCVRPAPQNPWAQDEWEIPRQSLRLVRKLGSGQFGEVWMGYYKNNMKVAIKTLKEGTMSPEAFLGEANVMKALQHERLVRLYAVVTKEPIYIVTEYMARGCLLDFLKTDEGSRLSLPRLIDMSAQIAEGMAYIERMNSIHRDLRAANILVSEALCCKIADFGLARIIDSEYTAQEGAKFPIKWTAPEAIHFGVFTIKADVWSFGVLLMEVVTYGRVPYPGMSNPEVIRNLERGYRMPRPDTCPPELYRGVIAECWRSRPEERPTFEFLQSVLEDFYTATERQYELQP
Sequence of TRKC (NTRK3) (chain, as listed by the source): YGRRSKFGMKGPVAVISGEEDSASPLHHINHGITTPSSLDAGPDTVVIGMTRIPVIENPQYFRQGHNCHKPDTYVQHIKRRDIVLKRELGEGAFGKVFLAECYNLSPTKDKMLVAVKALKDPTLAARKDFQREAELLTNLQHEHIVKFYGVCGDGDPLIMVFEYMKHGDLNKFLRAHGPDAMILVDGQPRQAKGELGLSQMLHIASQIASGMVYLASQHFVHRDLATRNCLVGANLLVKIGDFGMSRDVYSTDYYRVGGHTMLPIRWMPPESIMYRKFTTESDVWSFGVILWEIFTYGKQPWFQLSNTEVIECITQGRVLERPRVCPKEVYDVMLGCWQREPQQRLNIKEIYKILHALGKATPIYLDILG
Sequence of TRKA (NTRK1) (chain, as listed by the source): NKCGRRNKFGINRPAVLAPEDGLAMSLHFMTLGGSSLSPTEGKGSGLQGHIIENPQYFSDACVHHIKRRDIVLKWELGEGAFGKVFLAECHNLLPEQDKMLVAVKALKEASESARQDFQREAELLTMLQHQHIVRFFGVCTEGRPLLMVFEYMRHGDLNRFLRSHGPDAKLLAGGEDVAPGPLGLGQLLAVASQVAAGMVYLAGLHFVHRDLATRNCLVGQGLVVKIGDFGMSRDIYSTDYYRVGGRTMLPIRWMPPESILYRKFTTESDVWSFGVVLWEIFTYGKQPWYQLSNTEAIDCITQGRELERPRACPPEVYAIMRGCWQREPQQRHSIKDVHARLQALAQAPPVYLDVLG

Substance | Signal to Noise ratio with BRB1 Peptide (TR-FRET kinase assay; kinase 0.5 nM) | further results
TRKB (NTRK2) | 28 | –
LYNa | 32.5 | –
TRKC (NTRK3) | 6.4 | –
EphA7 | 17.2 | –
YES | – | Signal to Noise ratio with BRB1 Peptide (TR-FRET kinase assay; kinase 0.25 nM): 28
TRKA (NTRK1) | 23.2 | –
BLK | 31 | –
FGR | – | Signal to Noise ratio with BRB1 Peptide (TR-FRET kinase assay; kinase 0.1 nM): 29.3
